Experimental data published in paper PMC2768378 (2009).

Target: H2A.Z-H2B (Saccharomyces cerevisiae, UniProt Q12692)
Test: relaxation dispersion NMR

B1: Chz1 (protein)
chain: SDEAKEKRELESQKESSHNKSEKSVEPKPKRRRRRNYDDYDAEVAKEETKAKNGLTKSENNGTVEDSESDMDDAKLDALMGNEGEEEEDDLAEIDTSNIITSGRRTRGKVIDYKKTAEELDKKEPSTGSKDDVGYGEKEEDDEDEEDDDFKE
Q: For B1, which Kd is on record?
A: The Kd was about 200 nM.
